The record followed here is paper PMC3145545 (Molecular Biology of the Cell, 2011).

First the molecules themselves.
B1: Pac11 1-86 VQ51,52DA (site 1 mutant) (domain or fragment)
chain: MERLKQLEEKRRQLKELRERRKQASLFPGSETMGHHPTEVHAKATMVSVSDATDMEEGSKIQEPQSAYLRRKEVITYDKGIQTDQI
B2: Pac11 1-86 IQ81,82DA (site 2 mutant) (domain or fragment)
chain: B1 chain with D51V, A52Q, I81D, Q82A
B3: Drosophila LC8 (dynein light chain) (natural protein)
chain: MSDRKAVIKNADMSEEMQQDAVDCATQALEKYNIEKDIAAYIKKEFDKKYNPTWHCIVGRNFGSYVTHETRHFIYFYLGQVAILLFKSG

In test [1] the target is B3. The test is described as follows: native gel or EMSA.
For test [2], the target named is B1. The test is described as follows: AUC.
For test [3], the target named is B2. The test can be described thus: AUC.

Residue numbers refer to the chain shown, from its start.

As for B1, the binding result in test [1] is reported as “binds”.

B2: the binding result in test [1] is on record as “binds”.

Turning to B3, the “stoichiometry N” value in test [2] and in test [3] was 1 LC8 per Pac11 in each case.

The stoichiometry N is the number of molecules, sites or subunits per partner or assembly.
